Assay results reported in publication PMC8009405, “POT1 stability and binding measured by fluorescence thermal shift assays”.

Columns and labels:
POT1 (POT1-N) [1] = biological target: T1, POT1 (POT1-N) (UniProt Q9NUX5); assay: FTSA (SYPRO Orange); conditions: PNA backbone; printed as TTAGGGTTAG-O; 20 mM potassium phosphate, 180 mM KCl, pH 7.2; FTSA 20-99 °C, typically 5 uM POT1 and 50 uM DNA
T1 sequence: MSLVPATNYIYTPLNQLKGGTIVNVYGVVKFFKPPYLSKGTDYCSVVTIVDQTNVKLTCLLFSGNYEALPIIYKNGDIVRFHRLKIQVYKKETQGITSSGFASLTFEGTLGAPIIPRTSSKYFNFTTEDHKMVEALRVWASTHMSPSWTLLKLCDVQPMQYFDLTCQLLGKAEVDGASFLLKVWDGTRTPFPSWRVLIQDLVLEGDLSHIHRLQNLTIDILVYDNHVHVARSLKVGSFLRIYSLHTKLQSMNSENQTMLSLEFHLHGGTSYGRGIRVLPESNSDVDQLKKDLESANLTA

POT1 (POT1-N) [2] = biological target: T2, POT1 (POT1-N) (UniProt Q9NUX5 1-299); assay: FTSA (SYPRO Orange); no appreciable Tm shift; 20 mM potassium phosphate, 180 mM KCl, pH 7.2; FTSA 20-99 °C, typically 5 uM POT1 and 50 uM DNA; conditions: protein: recombinant; tags: C-terminal 6xHis; single strand
T2 sequence: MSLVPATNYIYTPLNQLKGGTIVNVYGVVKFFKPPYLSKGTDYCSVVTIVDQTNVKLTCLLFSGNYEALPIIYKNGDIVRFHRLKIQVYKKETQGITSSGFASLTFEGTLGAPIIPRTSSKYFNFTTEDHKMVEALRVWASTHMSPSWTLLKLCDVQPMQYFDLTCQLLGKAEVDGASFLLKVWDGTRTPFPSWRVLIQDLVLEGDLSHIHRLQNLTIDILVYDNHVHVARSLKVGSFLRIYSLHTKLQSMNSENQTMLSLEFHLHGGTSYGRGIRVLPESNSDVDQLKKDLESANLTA

POT1 (POT1-N) [3] = biological target: T2, POT1 (POT1-N); assay: FTSA titration (SYPRO Orange), Model 2; dCp_b fixed at 0; binding enthalpy and entropy fitted; dG25 -57.7 kJ/mol; 20 mM potassium phosphate, 180 mM KCl, pH 7.2; FTSA 20-99 °C, typically 5 uM POT1 and 50 uM DNA; conditions: protein: recombinant; tags: C-terminal 6xHis; single strand
POT1 (POT1-N) [4] = biological target: T2, POT1 (POT1-N); assay: FTSA titration (SYPRO Orange), Model 3; dCp_b 0; binding entropy and unfolding enthalpy fitted; dG25 -57.9 kJ/mol; 20 mM potassium phosphate, 180 mM KCl, pH 7.2; FTSA 20-99 °C, typically 5 uM POT1 and 50 uM DNA; conditions: protein: recombinant; tags: C-terminal 6xHis; single strand
POT1 (POT1-N) [5] = biological target: T2, POT1 (POT1-N); assay: FTSA titration (SYPRO Orange), Model 1; dCp_b -4300 J/mol/K; binding enthalpy fixed at -139 kJ/mol; dG25 -66.1 kJ/mol; 20 mM potassium phosphate, 180 mM KCl, pH 7.2; FTSA 20-99 °C, typically 5 uM POT1 and 50 uM DNA; conditions: protein: recombinant; tags: C-terminal 6xHis; single strand

TTAGGGTTAG [PNA of O1]
binding signal (°C (delta Tm)) (POT1 (POT1-N) [1]): 1

B1: O1c (negative control) (ssDNA)
DNA: CTAACCCTAA
binding result (POT1 (POT1-N) [2]): no binding

B2: O1 (ssDNA)
DNA: TTAGGGTTAG
Ka (POT1 (POT1-N) [3]): 1e+10 M⁻¹
Ka (POT1 (POT1-N) [4]): 1e+10 M⁻¹
Ka (POT1 (POT1-N) [5]): 4e+11 M⁻¹
